The values that follow come from the supplement of paper PMC7877785.

± gives the uncertainty stated by the source.

The nature of the data set: self-splicing fitness, log relative to wild type (ln ratio); higher = more splicing; Tetrahymena group I intron in knt gene, E. coli kanamycin selection, DiMSum; sequences stand for … in CUCUCU…GGAGGGAAAAGUUAUCAGGCAUGCACCUGGUAGCUAGUCUUUAAACCAAUAGAUUGCAUCGGUUUAAAAGGCAAGACCGUCAAAUUGCGGGAAAGGGGUCAACAGCCGUUCAGUACCAAGUCUCAGGGGAAACUUUGAGAUGGCCUUGCAAAGGGUAUGGUAAUAAGCUGACGGACAUGGUCCUAACCACGCAGCCAAGUCCUAAGUCAACAGAUCUUCUGUUGAUAUGGAUGCAGUUCACAGACUAAAUGUCGGUCGGGGAAGAUGUAUUCUUCUCAUAAGAUAUAGUCGGACCUCUCCUUAAUGGGAGCUAGCGGAUGAAGUGAUGCAACACUGGAGCCGCUGGGAACUAAUUUGUAUGCGAAAGUAUAUUGAUUAGUUUUGGAGUACUCGUGGUCG
The procedure, abridged:
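Pooled colonies went to amplicon sequencing on an Illumina HiSeq 2500 after six replicate transformations. The plates were LB agar with 100 μg/mL carbenicillin, 50 μM IPTG and 0.2% rhamnose, with or without 25 μg/mL kanamycin, incubated overnight at 37°C or 30°C. The E. coli BL21(DE3) library had all eight P1ex-region intron nucleotides randomised, the intron placed in the knt kanamycin-resistance gene on pET-22b(+). DiMSum fitness is the error-weighted combination of replicate fold changes, kanamycin against none, normalised to wild type.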

Regarding AGAUAGCAAUAUUACGUGGU, the “self-splicing fitness (ln)” value is, setting by setting: (30 °C) -3.03 ± 0.11; (37 °C) -2.27 ± 0.15.
On the same counts, the results for ACGUAGCAAUAUUACGUAGU are -3.78 ± 0.23 and -1.26 ± 0.16.
On the same counts, the results for GGAAAGCAAUAUUACGUGCU are -1.11 ± 0.089 and -0.467 ± 0.096.
In the case of ACAUAGCAAUAUUACGCCUC, the “self-splicing fitness (ln)” value (37 °C) is -1.29 ± 0.24.
Turning to GAAUAGCAAUAUUACGCGAU, the “self-splicing fitness (ln)” value was -3.41 ± 0.2 (30 °C) and -2.5 ± 0.19 (37 °C).
The corresponding values for AGGGAGCAAUAUUACGACUG are -2.15 ± 0.24 and 0.0208 ± 0.21.
The corresponding values for CCGUAGCAAUAUUACGGAGU are -2.68 ± 0.16 and -2.33 ± 0.22.
The corresponding values for AAAGAGCAAUAUUACGGAAU are -2.79 ± 0.19 and -2.57 ± 0.27.
Turning to UCCCAGCAAUAUUACGGAUG, the “self-splicing fitness (ln)” value is, setting by setting: (30 °C) -3.49 ± 0.2; (37 °C) -1.31 ± 0.15.
On the same counts, the results for UACAAGCAAUAUUACGUUAC are -4.21 ± 0.23 and -2.84 ± 0.22.
The corresponding values for GAGGAGCAAUAUUACGCACA are -1.61 ± 0.32 and -0.287 ± 0.23.
Consider GCAUAGCAAUAUUACGACGU, for which the “self-splicing fitness (ln)” value is -0.0199 ± 0.12 (30 °C) and 0.152 ± 0.12 (37 °C).
The corresponding values for UGAAAGCAAUAUUACGGACG are -0.186 ± 0.084 and 0.54 ± 0.12.
On the same counts, the results for GGAUAGCAAUAUUACGCCCA are -1.36 ± 0.49 and -1.39 ± 0.33.
On the same counts, the results for GAAAAGCAAUAUUACGGCUU are -0.227 ± 0.082 and 0.0447 ± 0.096.
GCCUAGCAAUAUUACGCACA: the “self-splicing fitness (ln)” value (30 °C) is -0.975 ± 0.12 and the “self-splicing fitness (ln)” value (37 °C) is -0.604 ± 0.13.
On the same counts, the results for GAACAGCAAUAUUACGCUCG are -0.797 ± 0.1 and -0.128 ± 0.15.
On the same counts, the results for CUCGAGCAAUAUUACGGAGA are -2.57 ± 0.36 and -1.72 ± 0.28.
On the same counts, the results for UUUCAGCAAUAUUACGGGGU are -3.58 ± 0.17 and -1.68 ± 0.15.
Turning to CAGCAGCAAUAUUACGUCAA, the “self-splicing fitness (ln)” value is -2.85 ± 0.21 (30 °C) and -3.37 ± 0.3 (37 °C).
Turning to CUCUAGCAAUAUUACGUAAU, the “self-splicing fitness (ln)” value by setting is: (30 °C) -3.59 ± 0.26; (37 °C) -3.77 ± 0.46.
On the same counts, the results for AAAUAGCAAUAUUACGGUUC are -1.21 ± 0.11 and -0.851 ± 0.16.
On the same counts, the results for UCGGAGCAAUAUUACGUCUA are -2.52 ± 0.14 and -1.89 ± 0.14.
Turning to AAGAAGCAAUAUUACGUGAU, the “self-splicing fitness (ln)” value (30 °C) is -1.96 ± 0.11 and the “self-splicing fitness (ln)” value (37 °C) was -2.09 ± 0.11.
On the same counts, the results for GGUGAGCAAUAUUACGACCG are -0.141 ± 0.11 and 0.778 ± 0.19.
Regarding AUGAAGCAAUAUUACGUCUC, the “self-splicing fitness (ln)” value reads like this: (30 °C) -1.1 ± 0.14; (37 °C) -1.22 ± 0.14.
The corresponding values for AUGAAGCAAUAUUACGCCCU are 0.921 ± 0.15 and 0.202 ± 0.17.
The corresponding values for CUGGAGCAAUAUUACGGAAA are -2.47 ± 0.33 and -2.78 ± 0.35.
On the same counts, the results for GCCGAGCAAUAUUACGUGAG are -1.23 ± 0.09 and -0.333 ± 0.12.
Consider GAGAAGCAAUAUUACGAGCU, for which the “self-splicing fitness (ln)” value reads like this: (30 °C) -0.838 ± 0.12; (37 °C) -0.347 ± 0.11.
Regarding AUUCAGCAAUAUUACGGUAC, the “self-splicing fitness (ln)” value runs as follows: (30 °C) -2.27 ± 0.11; (37 °C) -0.675 ± 0.094.
The corresponding values for AUUCAGCAAUAUUACGGUCA are -0.711 ± 0.12 and -0.789 ± 0.11.
On the same counts, the results for UCGCAGCAAUAUUACGCACG are -2.26 ± 0.16 and -0.255 ± 0.15.
On the same counts, the results for GUCCAGCAAUAUUACGGAGA are -0.714 ± 0.096 and 0.585 ± 0.11.
With CUACAGCAAUAUUACGGGAA, the “self-splicing fitness (ln)” value runs as follows: (30 °C) -2.88 ± 0.24; (37 °C) -2.28 ± 0.23.
On the same counts, the results for CUUCAGCAAUAUUACGCGCG are -0.941 ± 0.056 and -0.367 ± 0.087.
The corresponding values for UCGUAGCAAUAUUACGAGUC are -3.23 ± 0.17 and -2.47 ± 0.17.
On the same counts, the results for CGUAAGCAAUAUUACGACCA are -2.11 ± 0.35 and -0.83 ± 0.25.
For the sequence CAUCAGCAAUAUUACGGGCC, the “self-splicing fitness (ln)” value by setting is: (30 °C) -3.02 ± 0.45; (37 °C) -2.29 ± 0.47.
On the same counts, the results for CCCAAGCAAUAUUACGCCGC are -2.08 ± 0.37 and -1.07 ± 0.4.
On the same counts, the results for CAACAGCAAUAUUACGUUAC are -3.99 ± 0.21 and -2.44 ± 0.14.
The corresponding values for AGCUAGCAAUAUUACGAAGC are -3.35 ± 0.22 and -2.43 ± 0.3.
For the sequence AACAAGCAAUAUUACGCCCU, the “self-splicing fitness (ln)” value (30 °C) was determined as 0.18 ± 0.062 and the “self-splicing fitness (ln)” value (37 °C) turned out to be 0.0436 ± 0.08.
On the same counts, the results for GAGGAGCAAUAUUACGCGUG are -1.55 ± 0.19 and -0.66 ± 0.23.
On the same counts, the results for AACCAGCAAUAUUACGAUAC are -2.38 ± 0.084 and -1.39 ± 0.11.
On the same counts, the results for ACGCAGCAAUAUUACGUGUC are -3.37 ± 0.14 and -2.71 ± 0.2.
With UUAGAGCAAUAUUACGAAUG, the “self-splicing fitness (ln)” value was -2.2 ± 0.14 (30 °C) and -2.55 ± 0.26 (37 °C).
On the same counts, the results for ACACAGCAAUAUUACGUUUA are -2.9 ± 0.11 and -1.99 ± 0.088.
The corresponding values for GCUUAGCAAUAUUACGUAAC are -0.517 ± 0.11 and -0.62 ± 0.24.
The corresponding values for CCCGAGCAAUAUUACGGCGA are -2.7 ± 0.2 and -1.19 ± 0.12.
In the case of CAAUAGCAAUAUUACGCACC, the “self-splicing fitness (ln)” value (30 °C) was -3.66 ± 0.3.
Regarding CGGGAGCAAUAUUACGGGAC, the “self-splicing fitness (ln)” value was -3.57 ± 0.3 (30 °C) and -3.25 ± 0.4 (37 °C).
On the same counts, the results for ACCAAGCAAUAUUACGAUAC are -2.83 ± 0.32 and -1.99 ± 0.3.
Take AAAAAGCAAUAUUACGUCAG: the “self-splicing fitness (ln)” value was -2.75 ± 0.15 (30 °C) and -1.14 ± 0.13 (37 °C).
On the same counts, the results for ACAAAGCAAUAUUACGCAGC are -2.63 ± 0.17 and -0.879 ± 0.16.
The corresponding values for GGCCAGCAAUAUUACGCUCG are -2.5 ± 0.15 and -0.863 ± 0.13.
On the same counts, the results for CUUGAGCAAUAUUACGCUCG are -1.7 ± 0.17 and -2.65 ± 0.44.
Turning to AACAAGCAAUAUUACGGCUG, the “self-splicing fitness (ln)” value is -0.419 ± 0.059 (30 °C) and -0.225 ± 0.086 (37 °C).
As to GUUUAGCAAUAUUACGGUUC, the “self-splicing fitness (ln)” value was -1.09 ± 0.12 (30 °C) and -0.823 ± 0.15 (37 °C).
On the same counts, the results for GCGUAGCAAUAUUACGUUGU are -2.73 ± 0.17 and -1.89 ± 0.18.
On to UUAAAGCAAUAUUACGUACA, for which the “self-splicing fitness (ln)” value is, setting by setting: (30 °C) 0.237 ± 0.088; (37 °C) 0.0455 ± 0.12.
With CGUCAGCAAUAUUACGUCAA, the “self-splicing fitness (ln)” value (30 °C) was -2.64 ± 0.11 and the “self-splicing fitness (ln)” value (37 °C) was -1.61 ± 0.1.
UGAAAGCAAUAUUACGUCGG: the “self-splicing fitness (ln)” value was -1.12 ± 0.065 (30 °C) and -0.446 ± 0.082 (37 °C).
The corresponding values for AAAAAGCAAUAUUACGCAUA are -1.5 ± 0.11 and -0.715 ± 0.1.
Take ACCAAGCAAUAUUACGUGUG: the “self-splicing fitness (ln)” value (30 °C) is -2.06 ± 0.048 and the “self-splicing fitness (ln)” value (37 °C) is -1.1 ± 0.064.
The corresponding values for UGAUAGCAAUAUUACGCACA are 0.0791 ± 0.086 and -0.216 ± 0.1.
AGGGAGCAAUAUUACGCCAG: the “self-splicing fitness (ln)” value runs as follows: (30 °C) -1.99 ± 0.24; (37 °C) -2.14 ± 0.34.
As to CUAAAGCAAUAUUACGACAC, the “self-splicing fitness (ln)” value (37 °C) was -1.88 ± 0.47.
Turning to AGCGAGCAAUAUUACGUAGU, the “self-splicing fitness (ln)” value by setting is: (30 °C) -4.11 ± 0.16; (37 °C) -1.11 ± 0.13.
In the case of CUUAAGCAAUAUUACGAUAG, the “self-splicing fitness (ln)” value runs as follows: (30 °C) -2.01 ± 0.15; (37 °C) -0.283 ± 0.15.
On the same counts, the results for GGUAAGCAAUAUUACGAAAC are -1.48 ± 0.14 and -0.179 ± 0.12.
On the same counts, the results for GGCGAGCAAUAUUACGAUAC are -2.02 ± 0.37 and -0.796 ± 0.35.
The corresponding values for UAGCAGCAAUAUUACGACUC are -0.27 ± 0.091 and 0.54 ± 0.12.
Turning to UAGCAGCAAUAUUACGGCAU, the “self-splicing fitness (ln)” value by setting is: (30 °C) -1.29 ± 0.081; (37 °C) -0.191 ± 0.089.
The corresponding values for GAGUAGCAAUAUUACGCACU are -3.18 ± 0.19 and -1.34 ± 0.36.
